Key:
[1] = test system: HeLa Kyoto; assay: solubility in G1/S (NP-40 vs SDS abundance) (log2 ratio); higher = more soluble; conditions: cell cycle stage: G1/S
[2] = test system: HeLa Kyoto; assay: solubility change mitosis vs G1/S (difference of NP-40 vs SDS log2 ratios) (log2 ratio difference); higher = more soluble in mitosis
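Wherever solubility change mitosis vs G1/S (difference of NP-40 vs SDS log2 ratios) is given: synchronized HeLa Kyoto cells (double thymidine block for G1/S, nocodazole release for mitosis), protein amounts in NP-40 versus SDS lysates quantified by mass spectrometry, three biological replicates.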
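Wherever solubility in G1/S (NP-40 vs SDS abundance) is given: HeLa Kyoto cells arrested at G1/S by double thymidine block, proteins quantified by TMT10plex mass spectrometry in mild NP-40 versus SDS extracts, three biological replicates.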

Sequence of MAP1A (chain, as listed by the source): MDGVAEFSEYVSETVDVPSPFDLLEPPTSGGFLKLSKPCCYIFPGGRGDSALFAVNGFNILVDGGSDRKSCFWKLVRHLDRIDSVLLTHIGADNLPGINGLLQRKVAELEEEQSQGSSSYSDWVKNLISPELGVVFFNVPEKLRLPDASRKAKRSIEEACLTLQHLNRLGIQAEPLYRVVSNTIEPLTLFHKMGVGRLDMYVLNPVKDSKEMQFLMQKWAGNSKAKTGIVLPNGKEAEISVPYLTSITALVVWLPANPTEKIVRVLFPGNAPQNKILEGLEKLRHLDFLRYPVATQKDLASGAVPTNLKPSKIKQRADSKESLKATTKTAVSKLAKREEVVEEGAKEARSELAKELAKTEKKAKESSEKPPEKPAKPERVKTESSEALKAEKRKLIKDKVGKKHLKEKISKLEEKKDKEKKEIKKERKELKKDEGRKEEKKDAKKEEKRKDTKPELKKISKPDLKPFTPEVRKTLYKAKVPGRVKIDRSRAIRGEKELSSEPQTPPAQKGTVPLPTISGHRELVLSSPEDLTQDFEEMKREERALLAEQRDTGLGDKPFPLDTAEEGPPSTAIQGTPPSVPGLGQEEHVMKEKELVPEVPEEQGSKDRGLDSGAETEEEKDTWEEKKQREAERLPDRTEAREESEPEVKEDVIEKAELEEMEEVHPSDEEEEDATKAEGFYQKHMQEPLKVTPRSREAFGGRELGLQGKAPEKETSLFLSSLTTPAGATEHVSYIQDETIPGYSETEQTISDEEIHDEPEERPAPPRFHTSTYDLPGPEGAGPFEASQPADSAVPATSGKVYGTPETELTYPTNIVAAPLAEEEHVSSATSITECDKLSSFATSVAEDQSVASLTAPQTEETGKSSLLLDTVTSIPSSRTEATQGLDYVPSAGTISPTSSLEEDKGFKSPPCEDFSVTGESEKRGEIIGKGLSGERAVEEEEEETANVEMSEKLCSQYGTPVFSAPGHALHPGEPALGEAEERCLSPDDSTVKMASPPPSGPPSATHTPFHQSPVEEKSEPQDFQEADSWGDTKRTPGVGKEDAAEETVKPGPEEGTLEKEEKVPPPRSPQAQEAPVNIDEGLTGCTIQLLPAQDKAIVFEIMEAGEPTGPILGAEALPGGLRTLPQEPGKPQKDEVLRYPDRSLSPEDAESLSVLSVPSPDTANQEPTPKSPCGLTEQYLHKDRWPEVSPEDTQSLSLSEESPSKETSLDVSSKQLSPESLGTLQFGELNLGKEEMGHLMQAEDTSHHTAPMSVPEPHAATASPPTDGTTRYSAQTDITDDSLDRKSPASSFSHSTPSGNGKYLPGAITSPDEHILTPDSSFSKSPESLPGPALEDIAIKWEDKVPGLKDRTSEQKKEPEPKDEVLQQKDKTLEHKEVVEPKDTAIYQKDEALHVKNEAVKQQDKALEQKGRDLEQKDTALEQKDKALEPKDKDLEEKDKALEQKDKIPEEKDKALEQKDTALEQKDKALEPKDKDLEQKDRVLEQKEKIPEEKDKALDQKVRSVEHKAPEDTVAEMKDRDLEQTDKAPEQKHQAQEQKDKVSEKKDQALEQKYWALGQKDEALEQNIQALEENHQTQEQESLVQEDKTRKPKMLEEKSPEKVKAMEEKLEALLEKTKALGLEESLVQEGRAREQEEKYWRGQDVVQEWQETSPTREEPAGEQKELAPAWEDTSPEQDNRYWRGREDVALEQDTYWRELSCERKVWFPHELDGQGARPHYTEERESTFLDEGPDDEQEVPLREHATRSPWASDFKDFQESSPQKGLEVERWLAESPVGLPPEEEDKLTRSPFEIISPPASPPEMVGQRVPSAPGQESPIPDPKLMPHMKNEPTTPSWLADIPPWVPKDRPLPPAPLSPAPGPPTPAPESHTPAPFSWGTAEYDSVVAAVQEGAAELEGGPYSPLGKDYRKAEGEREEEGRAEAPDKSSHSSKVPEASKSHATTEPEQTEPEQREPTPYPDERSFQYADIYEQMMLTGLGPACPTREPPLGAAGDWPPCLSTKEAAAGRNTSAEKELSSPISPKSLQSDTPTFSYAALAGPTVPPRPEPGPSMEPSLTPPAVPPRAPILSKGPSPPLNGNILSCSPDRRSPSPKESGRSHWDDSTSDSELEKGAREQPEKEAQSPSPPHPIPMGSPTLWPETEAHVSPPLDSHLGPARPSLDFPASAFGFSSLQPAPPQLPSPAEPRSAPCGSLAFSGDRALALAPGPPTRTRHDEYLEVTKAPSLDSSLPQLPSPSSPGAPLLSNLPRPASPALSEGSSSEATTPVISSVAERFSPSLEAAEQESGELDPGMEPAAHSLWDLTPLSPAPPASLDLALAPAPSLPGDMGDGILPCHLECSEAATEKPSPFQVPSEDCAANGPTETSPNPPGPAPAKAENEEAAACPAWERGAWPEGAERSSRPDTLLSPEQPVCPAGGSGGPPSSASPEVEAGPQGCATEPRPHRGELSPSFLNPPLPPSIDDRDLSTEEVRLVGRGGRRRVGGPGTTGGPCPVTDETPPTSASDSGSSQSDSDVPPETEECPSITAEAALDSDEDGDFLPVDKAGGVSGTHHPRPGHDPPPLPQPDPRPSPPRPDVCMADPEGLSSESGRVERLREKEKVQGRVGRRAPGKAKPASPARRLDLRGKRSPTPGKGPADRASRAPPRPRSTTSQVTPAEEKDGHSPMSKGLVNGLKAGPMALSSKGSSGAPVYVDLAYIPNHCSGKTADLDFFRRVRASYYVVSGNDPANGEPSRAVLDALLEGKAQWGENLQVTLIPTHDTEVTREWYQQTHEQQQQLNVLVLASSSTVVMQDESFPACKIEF
Sequence of CLK4 (chain, as listed by the source): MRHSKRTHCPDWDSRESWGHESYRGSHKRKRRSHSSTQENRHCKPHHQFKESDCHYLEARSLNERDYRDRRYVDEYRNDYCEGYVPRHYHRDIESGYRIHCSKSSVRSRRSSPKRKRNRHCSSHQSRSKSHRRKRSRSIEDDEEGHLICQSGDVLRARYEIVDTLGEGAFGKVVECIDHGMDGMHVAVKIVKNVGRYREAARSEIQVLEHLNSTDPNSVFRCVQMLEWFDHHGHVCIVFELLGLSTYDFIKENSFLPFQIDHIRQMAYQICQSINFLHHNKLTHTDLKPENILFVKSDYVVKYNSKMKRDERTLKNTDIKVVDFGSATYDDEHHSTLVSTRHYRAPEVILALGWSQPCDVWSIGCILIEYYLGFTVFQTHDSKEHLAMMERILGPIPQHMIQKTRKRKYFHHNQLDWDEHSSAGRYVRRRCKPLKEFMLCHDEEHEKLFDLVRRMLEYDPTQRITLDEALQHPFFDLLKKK

For “MIPLEKPGSGGSSPGATSGSGRAGRGLSGPCRPPPPPQARGLLTEIRAVVRTEPFQDGYSLCPGRELGRGKFAVVRKCIKKDSGKEFAAKFMRKRRKGQDCRMEIIHEIAVLELAQDNPWVINLHEVYETASEMILVLEYAAGGEIFDQCVADREEAFKEKDVQRLMRQILEGVHFLHTRDVVHLDLKPQNILLTSESPLGDIKIVDFGLSRILKNSEELREIMGTPEYVAPEILSYDPISMATDMWSIGVLTYVMLTGISPFLGNDKQETFLNISQMNLSYSEEEFDVLSESAVDFIRTLLVKKPEDRATAEECLKHPWLTQSSIQEPSFRMEKALEEANALQEGHSVPEINSDTDKSETKESIVTEELIVVTSYTLGQCRQSEKEKMEQKAISKRFKFEEPLLQEIPGEFIY [STK17A]”, the “solubility in G1/S (log2)” value [1] was 0.0848 and the “solubility change mitosis (log2)” value [2] was -0.0546.

In the case of “MAGWWPALSRAARRHPWPTNVLLYGSLVSAGDALQQRLQGREANWRQTRRVATLVVTFHANFNYVWLRLLERALPGRAPHALLAKLLCDQVVGAPIAVSAFYVGMSILQGKDDIFLDLKQKFWNTYLSGLMYWPFVQLTNFSLVPVQWRTAYAGVCGFLWATFICFSQQSGDGTFKSAFTILYTKGTSATEGYPKK [MPV17L]”, the “solubility in G1/S (log2)” value [1] is reported as -0.145 and the “solubility change mitosis (log2)” value [2] is reported as -0.192.

“MAEGPEEARGHPPGQDDGGGDHEPVPSLRGPPTTAVPCPRDDPQAEPQAPGRPTAPGLAAAAAADKLEPPRELRKRGEAASGSGAELQEQAGCEAPEAAAPRERPARLSAREYSRQVHEWLWQSYCGYLTWHSGLAAFPAYCSPQPSPQSFPSGGAAVPQAAAPPPPQLGYYNPFYFLSPGAAGPDPRTAAGISTPAPVAGLGPRAPHVQASVRATPVTRVGSAAPSRSPSETGRQAGREYVIPSLAHRFMAEMVDFFILFFIKATIVLSIMHLSGIKDISKFAMHYIIEEIDEDTSMEDLQKMMVVALIYRLLVCFYEIICIWGAGGATPGKFLLGLRVVTCDTSVLIAPSRVLVIPSSNVSITTSTIRALIKNFSIASFFPAFITLLFFQHNRTAYDIVAGTIVVKRNGVR [FAM8A1]” was tested, and the “solubility in G1/S (log2)” value [1] was -0.0476 and the “solubility change mitosis (log2)” value [2] was 0.0402.

In the case of “MGRGLLRGLWPLHIVLWTRIASTIPPHVQKSVNNDMIVTDNNGAVKFPQLCKFCDVRFSTCDNQKSCMSNCSITSICEKPQEVCVAVWRKNDENITLETVCHDPKLPYHDFILEDAASPKCIMKEKKKPGETFFMCSCSSDECNDNIIFSEEYNTSNPDLLLVIFQVTGISLLPPLGVAISVIIIFYCYRVNRQQKLSSTWETGKTRKLMEFSEHCAIILEDDRSDISSTCANNINHNTELLPIELDTLVGKGRFAEVYKAKLKQNTSEQFETVAVKIFPYEEYASWKTEKDIFSDINLKHENILQFLTAEERKTELGKQYWLITAFHAKGNLQEYLTRHVISWEDLRKLGSSLARGIAHLHSDHTPCGRPKMPIVHRDLKSSNILVKNDLTCCLCDFGLSLRLDPTLSVDDLANSGQVGTARYMAPEVLESRMNLENVESFKQTDVYSMALVLWEMTSRCNAVGEVKDYEPPFGSKVREHPCVESMKDNVLRDRGRPEIPSFWLNHQGIQMVCETLTECWDHDPEARLTAQCVAERFSELEHLDRLSGRSCSEEKIPEDGSLNTTK [TGFBR2]”, the “solubility in G1/S (log2)” value [1] is reported as -0.228 and the “solubility change mitosis (log2)” value [2] is reported as -0.067.

With CLK4 the “solubility in G1/S (log2)” value [1] was -1.44 and the “solubility change mitosis (log2)” value [2] was 0.508.

With “MTTLTHRARRTEISKNSEKKMESEEDSNWEKSPDNEDSGDSKDIRLTLMEEVLLLGLKDKEGYTSFWNDCISSGLRGGILIELAMRGRIYLEPPTMRKKRLLDRKVLLKSDSPTGDVLLDETLKHIKATEPTETVQTWIELLTGETWNPFKLQYQLRNVRERIAKNLVEKGILTTEKQNFLLFDMTTHPVTNTTEKQRLVKKLQDSVLERWVNDPQRMDKRTLALLVLAHSSDVLENVFSSLTDDKYDVAMNRAKDLVELDPEVEGTKPSATEMIWAVLAAFNKS [GOLPH3L]” the “solubility in G1/S (log2)” value [1] was 0.202 and the “solubility change mitosis (log2)” value [2] was 0.0306.

In the case of “MGLELYLDLLSQPCRAVYIFAKKNDIPFELRIVDLIKGQHLSDAFAQVNPLKKVPALKDGDFTLTESVAILLYLTRKYKVPDYWYPQDLQARARVDEYLAWQHTTLRRSCLRALWHKVMFPVFLGEPVSPQTLAATLAELDVTLQLLEDKFLQNKAFLTGPHISLADLVAITELMHPVGAGCQVFEGRPKLATWRQRVEAAVGEDLFQEAHEVILKAKDFPPADPTIKQKLMPWVLAMIR [GSTT1]”, the “solubility in G1/S (log2)” value [1] is reported as 0.038 and the “solubility change mitosis (log2)” value [2] is reported as -0.295.

In the case of “MEGAAAREARGTETPRASAPPPAPSEPPAAPRARPRLVFRTQLAHGSPTGKIEGFTNVRELYAKIAEAFGIAPTEILFCTLNSHKVDMQKLLGGQIGLEDFIFAHVRGETKEVEVTKTEDALGLTITDNGAGYAFIKRIKEGSIINRIEAVCVGDSIEAINDHSIVGCRHYEVAKMLRELPKSQPFTLRLVQPKRAFDMIGQRSRSSKCPVEAKVTSGRETLRLRSGGAATVEEAPSEFEEEASRKVDDLLESYMGIRDPELASTMVETSKKTASAQEFARCLDSVLGEFAFPDEFVVEVWAAIGEAREACG [GIPC3]”, the “solubility in G1/S (log2)” value [1] is reported as 0.0786 and the “solubility change mitosis (log2)” value [2] is reported as -0.0196.

With “MGSLSGLRLAAGSCFRLCERDVSSSLRLTRSSDLKRINGFCTKPQESPGAPSRTYNRVPLHKPTDWQKKILIWSGRFKKEDEIPETVSLEMLDAAKNKMRVKISYLMIALTVVGCIFMVIEGKKAAQRHETLTSLNLEKKARLKEEAAMKAKTE [FAM162A]” the “solubility in G1/S (log2)” value [1] was 0.312 and the “solubility change mitosis (log2)” value [2] was 0.327.

In the case of “MAEAATPGTTATTSGAGAAAATAAAASPTPIPTVTAPSLGAGGGGGGSDGSGGGWTKQVTCRYFMHGVCKEGDNCRYSHDLSDSPYSVVCKYFQRGYCIYGDRCRYEHSKPLKQEEATATELTTKSSLAASSSLSSIVGPLVEMNTGEAESRNSNFATVGAGSEDWVNAIEFVPGQPYCGRTAPSCTEAPLQGSVTKEESEKEQTAVETKKQLCPYAAVGECRYGENCVYLHGDSCDMCGLQVLHPMDAAQRSQHIKSCIEAHEKDMELSFAVQRSKDMVCGICMEVVYEKANPSERRFGILSNCNHTYCLKCIRKWRSAKQFESKIIKSCPECRITSNFVIPSEYWVEEKEEKQKLILKYKEAMSNKACRYFDEGRGSCPFGGNCFYKHAYPDGRREEPQRQKVGTSSRYRAQRRNHFWELIEERENSNPFDNDEEEVVTFELGEMLLMLLAAGGDDELTDSEDEWDLFHDELEDFYDLDL [MKRN1]”, the “solubility in G1/S (log2)” value [1] is reported as 0.102 and the “solubility change mitosis (log2)” value [2] is reported as -0.322.

MAP1A was tested, and the “solubility in G1/S (log2)” value [1] was -0.122 and the “solubility change mitosis (log2)” value [2] was -0.0549.

With “MAAPTPARPVLTHLLVALFGMGSWAAVNGIWVELPVVVKELPEGWSLPSYVSVLVALGNLGLLVVTLWRRLAPGKDEQVPIRVVQVLGMVGTALLASLWHHVAPVAGQLHSVAFLALAFVLALACCASNVTFLPFLSHLPPRFLRSFFLGQGLSALLPCVLALVQGVGRLECPPAPINGTPGPPLDFLERFPASTFFWALTALLVASAAAFQGLLLLLPPPPSVPTGELGSGLQVGAPGAEEEVEESSPLQEPPSQAAGTTPGPDPKAYQLLSARSACLLGLLAATNALTNGVLPAVQSFSCLPYGRLAYHLAVVLGSAANPLACFLAMGVLCRSLAGLGGLSLLGVFCGGYLMALAVLSPCPPLVGTSAGVVLVVLSWVLCLGVFSYVKVAASSLLHGGGRPALLAAGVAIQVGSLLGAVAMFPPTSIYHVFHSRKDCADPCDS [SLC52A2]” the “solubility in G1/S (log2)” value [1] was -0.143 and the “solubility change mitosis (log2)” value [2] was 0.202.

With “MDSPGYNCFVDKDKMDAAIQDLGPKELSCTELQELKQLARQGYWAQSHALRGKVYQRLIRDIPCRTVTPDASVYSDIVGKIVGKHSSSCLPLPEFVDNTQVPSYCLNARGEGAVRKILLCLANQFPDISFCPALPAVVALLLHYSIDEAECFEKACRILACNDPGRRLIDQSFLAFESSCMTFGDLVNKYCQAAHKLMVAVSEDVLQVYADWQRWLFGELPLCYFARVFDVFLVEGYKVLYRVALAILKFFHKVRAGQPLESDSVKQDIRTFVRDIAKTVSPEKLLEKAFAIRLFSRKEIQLLQMANEKALKQKGITVKQKSVSLSKRQFVHLAVHAENFRSEIVSVREMRDIWSWVPERFALCQPLLLFSSLQHGYSLARFYFQCEGHEPTLLLIKTTQKEVCGAYLSTDWSERNKFGGKLGFFGTGECFVFRLQPEVQRYEWVVIKHPELTKPPPLMAAEPTAPLSHSASSDPADRLSPFLAARHFNLPSKTESMFMAGGSDCLIVGGGGGQALYIDGDLNRGRTSHCDTFNNQPLCSENFLIAAVEAWGFQDPDTQ [TBC1D24]” the “solubility in G1/S (log2)” value [1] was -0.273 and the “solubility change mitosis (log2)” value [2] was -0.16.

“MEGVELKEEWQDEDFPIPLPEDDSIEADILAITGPEDQPGSLEVNGNKVRKKLMAPDISLTLDPSDGSVLSDDLDESGEIDLDGLDTPSENSNEFEWEDDLPKPKTTEVIRKGSITEYTAAEEKEDGRRWRMFRIGEQDHRVDMKAIEPYKKVISHGGYYGDGLNAIVVFAVCFMPESSQPNYRYLMDNLFKYVIGTLELLVAENYMIVYLNGATTRRKMPSLGWLRKCYQQIDRRLRKNLKSLIIVHPSWFIRTLLAVTRPFISSKFSQKIRYVFNLAELAELVPMEYVGIPECIKQVDQELNGKQDEPKNEQ [BNIP2]” was tested, and the “solubility in G1/S (log2)” value [1] was 0.0256 and the “solubility change mitosis (log2)” value [2] was -0.366.

In the case of “MSAQTSPAEKGLNPGLMCQESYACSGTDEAIFECDECCSLQCLRCEEELHRQERLRNHERIRLKPGHVPYCDLCKGLSGHLPGVRQRAIVRCQTCKINLCLECQKRTHSGGNKRRHPVTVYNVSNLQESLEAEEMDEETKRKKMTEKVVSFLLVDENEEIQVTNEEDFIRKLDCKPDQHLKVVSIFGNTGDGKSHTLNHTFFYGREVFKTSPTQESCTVGVWAAYDPVHKVAVIDTEGLLGATVNLSQRTRLLLKVLAISDLVIYRTHADRLHNDLFKFLGDASEAYLKHFTKELKATTARCGLDVPLSTLGPAVIIFHETVHTQLLGSDHPSEVPEKLIQDRFRKLGRFPEAFSSIHYKGTRTYNPPTDFSGLRRALEQLLENNTTRSPRHPGVIFKALKALSDRFSGEIPDDQMAHSSFFPDEYFTCSSLCLSCGVGCKKSMNHGKEGVPHEAKSRCRYSHQYDNRVYTCKACYERGEEVSVVPKTSASTDSPWMGLAKYAWSGYVIECPNCGVVYRSRQYWFGNQDPVDTVVRTEIVHVWPGTDGFLKDNNNAAQRLLDGMNFMAQSVSELSLGPTKAVTSWLTDQIAPAYWRPNSQILSCNKCATSFKDNDTKHHCRACGEGFCDSCSSKTRPVPERGWGPAPVRVCDNCYEARNVQLAVTEAQVDDEGGTLIARKVGEAVQNTLGAVVTAIDIPLGLVKDAARPAYWVPDHEILHCHNCRKEFSIKLSKHHCRACGQGFCDECSHDRRAVPSRGWDHPVRVCFNCNKKPGDL [ZFYVE1]”, the “solubility in G1/S (log2)” value [1] is reported as -0.282 and the “solubility change mitosis (log2)” value [2] is reported as -0.0704.

From the supplement of paper PMC5998384
